Laboratory results published in the Human Domainome abundance scans (Beltran et al. 2025).
± gives the uncertainty stated by the source.

B1: Death-inducer obliterator 1, residues 263 to 321; numbered along this chain, Q9BTC0 (parent)
chain: GYDPNALYCICRQPHNNRFMICCDRCEEWFHGDCVGISEARGRLLERNGEDYICPNCTI

Variants of: B1
Experiment: abundance fitness (aPCA) (normalised: wild type 0, dead -1); higher = more abundant; growth selection in yeast, the domain comes from the species named
Details: Homo sapiens
GYDPNFLYCICRQPHNNRFMICCDRCEEWFHGDCVGISEARGRLLERNGEDYICPNCTI [A6F] showed an abundance fitness of -0.198 ± 0.17.
Work on GYDPNGLYCICRQPHNNRFMICCDRCEEWFHGDCVGISEARGRLLERNGEDYICPNCTI [A6G] yielded an abundance fitness of -0.306 ± 0.058.
For GYDPNILYCICRQPHNNRFMICCDRCEEWFHGDCVGISEARGRLLERNGEDYICPNCTI [A6I], the abundance fitness was -0.279 ± 0.12.
For GYDPNKLYCICRQPHNNRFMICCDRCEEWFHGDCVGISEARGRLLERNGEDYICPNCTI [A6K], the abundance fitness was -0.412 ± 0.1.
Work on GYDPNLLYCICRQPHNNRFMICCDRCEEWFHGDCVGISEARGRLLERNGEDYICPNCTI [A6L] yielded an abundance fitness of -0.33 ± 0.078.
Work on GYDPNMLYCICRQPHNNRFMICCDRCEEWFHGDCVGISEARGRLLERNGEDYICPNCTI [A6M] yielded an abundance fitness of 0.102 ± 0.082.
GYDPNNLYCICRQPHNNRFMICCDRCEEWFHGDCVGISEARGRLLERNGEDYICPNCTI [A6N] gave an abundance fitness of 0.041 ± 0.13.
Variant GYDPNPLYCICRQPHNNRFMICCDRCEEWFHGDCVGISEARGRLLERNGEDYICPNCTI [A6P] has an abundance fitness of -0.471 ± 0.1.
Work on GYDPNQLYCICRQPHNNRFMICCDRCEEWFHGDCVGISEARGRLLERNGEDYICPNCTI [A6Q] yielded an abundance fitness of -0.105 ± 0.12.
Work on GYDPNRLYCICRQPHNNRFMICCDRCEEWFHGDCVGISEARGRLLERNGEDYICPNCTI [A6R] yielded an abundance fitness of -0.419 ± 0.068.
With GYDPNSLYCICRQPHNNRFMICCDRCEEWFHGDCVGISEARGRLLERNGEDYICPNCTI [A6S] the abundance fitness was -0.511 ± 0.12.
With GYDPNTLYCICRQPHNNRFMICCDRCEEWFHGDCVGISEARGRLLERNGEDYICPNCTI [A6T] the abundance fitness was -0.07 ± 0.1.
GYDPNVLYCICRQPHNNRFMICCDRCEEWFHGDCVGISEARGRLLERNGEDYICPNCTI [A6V] gave an abundance fitness of -0.066 ± 0.064.
For GYDPNWLYCICRQPHNNRFMICCDRCEEWFHGDCVGISEARGRLLERNGEDYICPNCTI [A6W], the abundance fitness was -0.569 ± 0.13.
In the case of GYDPNYLYCICRQPHNNRFMICCDRCEEWFHGDCVGISEARGRLLERNGEDYICPNCTI [A6Y], the abundance fitness is reported as -0.806 ± 0.21.
Work on GYDPNACYCICRQPHNNRFMICCDRCEEWFHGDCVGISEARGRLLERNGEDYICPNCTI [L7C] yielded an abundance fitness of -0.062 ± 0.078.
GYDPNADYCICRQPHNNRFMICCDRCEEWFHGDCVGISEARGRLLERNGEDYICPNCTI [L7D] showed an abundance fitness of -0.415 ± 0.1.
GYDPNAEYCICRQPHNNRFMICCDRCEEWFHGDCVGISEARGRLLERNGEDYICPNCTI [L7E] showed an abundance fitness of 0.032 ± 0.081.
GYDPNAFYCICRQPHNNRFMICCDRCEEWFHGDCVGISEARGRLLERNGEDYICPNCTI [L7F] showed an abundance fitness of 0.042 ± 0.083.
In the case of GYDPNAGYCICRQPHNNRFMICCDRCEEWFHGDCVGISEARGRLLERNGEDYICPNCTI [L7G], the abundance fitness is reported as 0.086 ± 0.049.
GYDPNAHYCICRQPHNNRFMICCDRCEEWFHGDCVGISEARGRLLERNGEDYICPNCTI [L7H] showed an abundance fitness of 0.119 ± 0.079.
Variant GYDPNAIYCICRQPHNNRFMICCDRCEEWFHGDCVGISEARGRLLERNGEDYICPNCTI [L7I] has an abundance fitness of 0.106 ± 0.088.
GYDPNAKYCICRQPHNNRFMICCDRCEEWFHGDCVGISEARGRLLERNGEDYICPNCTI [L7K] showed an abundance fitness of -0.012 ± 0.23.
For GYDPNAMYCICRQPHNNRFMICCDRCEEWFHGDCVGISEARGRLLERNGEDYICPNCTI [L7M], the abundance fitness was 0.1 ± 0.072.
Variant GYDPNANYCICRQPHNNRFMICCDRCEEWFHGDCVGISEARGRLLERNGEDYICPNCTI [L7N] has an abundance fitness of 0.009 ± 0.098.
GYDPNAPYCICRQPHNNRFMICCDRCEEWFHGDCVGISEARGRLLERNGEDYICPNCTI [L7P] showed an abundance fitness of -0.119 ± 0.076.
Variant GYDPNAQYCICRQPHNNRFMICCDRCEEWFHGDCVGISEARGRLLERNGEDYICPNCTI [L7Q] has an abundance fitness of 0.026 ± 0.081.
In the case of GYDPNARYCICRQPHNNRFMICCDRCEEWFHGDCVGISEARGRLLERNGEDYICPNCTI [L7R], the abundance fitness is reported as 0.008 ± 0.048.
GYDPNATYCICRQPHNNRFMICCDRCEEWFHGDCVGISEARGRLLERNGEDYICPNCTI [L7T] showed an abundance fitness of -0.006 ± 0.066.
Work on GYDPNAWYCICRQPHNNRFMICCDRCEEWFHGDCVGISEARGRLLERNGEDYICPNCTI [L7W] yielded an abundance fitness of -0.055 ± 0.15.
With GYDPNAYYCICRQPHNNRFMICCDRCEEWFHGDCVGISEARGRLLERNGEDYICPNCTI [L7Y] the abundance fitness was 0.002 ± 0.11.
Work on GYDPNALCCICRQPHNNRFMICCDRCEEWFHGDCVGISEARGRLLERNGEDYICPNCTI [Y8C] yielded an abundance fitness of 0.069 ± 0.092.
Work on GYDPNALDCICRQPHNNRFMICCDRCEEWFHGDCVGISEARGRLLERNGEDYICPNCTI [Y8D] yielded an abundance fitness of 0.135 ± 0.1.
GYDPNALECICRQPHNNRFMICCDRCEEWFHGDCVGISEARGRLLERNGEDYICPNCTI [Y8E] showed an abundance fitness of 0.038 ± 0.12.
For GYDPNALFCICRQPHNNRFMICCDRCEEWFHGDCVGISEARGRLLERNGEDYICPNCTI [Y8F], the abundance fitness was 0.035 ± 0.12.
GYDPNALHCICRQPHNNRFMICCDRCEEWFHGDCVGISEARGRLLERNGEDYICPNCTI [Y8H] gave an abundance fitness of 0.03 ± 0.09.
With GYDPNALICICRQPHNNRFMICCDRCEEWFHGDCVGISEARGRLLERNGEDYICPNCTI [Y8I] the abundance fitness was 0.165 ± 0.12.
In the case of GYDPNALKCICRQPHNNRFMICCDRCEEWFHGDCVGISEARGRLLERNGEDYICPNCTI [Y8K], the abundance fitness is reported as 0.115 ± 0.059.
Work on GYDPNALLCICRQPHNNRFMICCDRCEEWFHGDCVGISEARGRLLERNGEDYICPNCTI [Y8L] yielded an abundance fitness of 0.048 ± 0.047.
Work on GYDPNALMCICRQPHNNRFMICCDRCEEWFHGDCVGISEARGRLLERNGEDYICPNCTI [Y8M] yielded an abundance fitness of 0.07 ± 0.079.
For GYDPNALNCICRQPHNNRFMICCDRCEEWFHGDCVGISEARGRLLERNGEDYICPNCTI [Y8N], the abundance fitness was 0.192 ± 0.088.
In the case of GYDPNALPCICRQPHNNRFMICCDRCEEWFHGDCVGISEARGRLLERNGEDYICPNCTI [Y8P], the abundance fitness is reported as 0.059 ± 0.075.
Work on GYDPNALQCICRQPHNNRFMICCDRCEEWFHGDCVGISEARGRLLERNGEDYICPNCTI [Y8Q] yielded an abundance fitness of -0.019 ± 0.081.
Work on GYDPNALRCICRQPHNNRFMICCDRCEEWFHGDCVGISEARGRLLERNGEDYICPNCTI [Y8R] yielded an abundance fitness of 0.115 ± 0.053.
GYDPNALSCICRQPHNNRFMICCDRCEEWFHGDCVGISEARGRLLERNGEDYICPNCTI [Y8S] showed an abundance fitness of 0.125 ± 0.056.
